{"source": "paper PMC9925492", "about": "“Reduction of phenolics in faba bean meal using recombinantly produced and purified Bacillus ligniniphilus catechol 2,3-dioxygenase” (Bioresources and Bioprocessing, 2023)", "system": "Cc1cccc(O)c1O", "assay": "purified protein", "conditions": "10 mM Mn2+, 50 mM phosphate pH 7.5, 32.5 °C"}
{"substance": "BLC23O (Halalkalibacterium ligniniphilum)", "values": [{"measurement": "Km", "value": "379 ± 86", "unit": "µM"}, {"measurement": "kcat", "value": "0.13 ± 0.01", "unit": "s⁻¹"}]}
